Source: the nanobody polyreactivity screen of Harvey et al. (2022)

Experiment: yeast display, Sf9 membrane polyspecificity reagent, FACS + sequencing; frameworks hold sequencing errors
Method in brief: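 A synthetic nanobody library was expressed on Saccharomyces cerevisiae BJ5465 by galactose induction for 36–48 hours. The library was stained for 1 hour at 4 °C with 10% biotinylated, detergent-solubilized Sf9 membrane reagent and enriched with streptavidin microbeads before FACS. Low and high (top ~1%) gates were set on anti-HA fluorescence for expression and streptavidin fluorescence for reagent binding, and each polyreactivity label reflects the gate of origin.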

Row | Sequence | polyreactivity (PSR sort gate)
1 | QVQLVESGGGLVQGGGSLRLSCAASGRTFRYYAMGWYRQAPGKERELVAAITRSGGSTYYADSVKGRFTISRDNAKYTVYLQMNSLKPEDTAVYYCAASRFTSYGIDYDYWAQGTQVTVSS | high polyreactivity
2 | QVQLVESGGGLVQGGGSLRLSCAASGSTFAVYDMGWYRPAPGKERELVAAITVSGSSTHYADSVKGRFTISRDNAKNTVYLQMNSLKPEDTAVYYWGQGTQVTVSS | low polyreactivity
3 | QVQLVESGGGLVQGGGSLRLSCAASGSTFGRYAMGWYRQAPGKEREFVAGITGRGGSTYYADSVKGRFTISRDNAKNTVYLQMNSLKPQDTAVYYCAAGYRVGYLRAGDYWGQGTQVTVSS | high polyreactivity
4 | QVQLVESGGGLVQGGGSLRLSCDDSGRNFNAYSRGWYRQATAKERELVAAISSRGGSTYYADSVKGRFTISRDNEMNSVYLKMNSLQPEDSAVYYFAAGIYTATGYGYWGQGTQVTVSS | high polyreactivity
5 | QVQLVESGGGLVQGGSLRLSCAASGFTFPIYVMGGYRQAPGKERELVASISSVGSTNYADSVKGRFTISRDNAKNTVYLQMNSLKPEDTAVYYCNADAPNSYGGFDYWGQGTQVTVSS | low polyreactivity
6 | QVQLVESGGGLVQPEGSLRLSSAASGRTFDYYALGWYRQAPGKERELVAAITWRGVSTYYADSVKGRFTISRDNAKNTVYLQMNSLKPEDTAVYYCAAYSYPYWQKRPYDYWGQGTQVTVSS | low polyreactivity
7 | QVQLVESGGGLVQPGGSLRLRCAASGFIFWIYAMGWYRQAPGKERELVAAISLSSGSTYYADSVKGRFTISRDNAKNTVYLEMNSLKTEDTAVYYCAARGYSHVASRLYYYWGQGTQVTVSS | high polyreactivity
8 | QVQLVESGGGLVQPGGSLRLSCAASGATLRSNAMGWSRQAPGKERELVAGISSGGGTYYADSVKGRFTISRDNAKNTVYLQMNSLNTEDTAVYYCAKVVYFGWSVQYYYWGQGTQVNVSS | low polyreactivity
9 | QVQLVESGGGLVQPGGSLRLSCAASGFIFSYYAIGWYRQAPGKERELVAAISYRGGSTHYADSVKGRFTISRDNAKNTVYLQMNSLKPEDTAVYYCAADRVRRPSPVGMDYWGQGTQVTVSS | high polyreactivity
10 | QVQLVESGGGLVQPGGSLRLSCAASGFIFSYYAMGWYRQAPGKERELVAAITQSGGGTYYADSVKGRFTISRDNAKNTVYLQMNSLKPEDTAVYYCAVLYYQTRQVYSGYSRYWLYSSRYDYWGQGTQVTVSS | high polyreactivity
11 | QVQLVESGGGLVQPGGSLRLSCAASGGIFYGYAMGWYRQAPGKERELVAAISSTGGRTYYADSVKGRFTISRDNAKNTVYLQMNSLKPEDTAVYYCAAEDFTRQFEYWGQGTQVTVSS | low polyreactivity
12 | QVQLVESGGGLVQPGGSLRLSCAASGIIFDVYAMGWYRQAPGKERELVAGISSGGSTYYADSVKGRFTISRDNAKNTVYFQMNSLKPEDTAVYYCNADGGYSYESTDHYGYDYWGQGTQVTVSS | low polyreactivity
13 | QVQLVESGGGLVQPGGSLRLSCAASGITFRGYAMGWYRQAPGKERELVATISYRGGNTYYADSVKGRFTISRDNAKNTVYLQMNSLKPEDTAVYYCARKYFRTSNLYGYWGQGTQVTVSS | high polyreactivity
14 | QVQLVESGGGLVQPGGSLRLSCAASGRIFIVNAMGWYRQAPGKERELVAAISRRGGSTYYADSVKGRFTISRDIAKNTVYLQMNSLKPEDTAVYYCNAVGGRYTGWRYDYWGQGTQVTVSS | high polyreactivity
15 | QVQLVESGGGLVQPGGSLRLSCAASGRISSKYAMGWYRQAPGKERELVATISSRGGSTYYADSVKGRFTISRDNAKNTVYLQMNSLKPEDTAVYYCNRPTYLHSTSYSYDYWGQGTQVTVSS | low polyreactivity
16 | QVQLVESGGGLVQPGGSLRLSCAASGSILKSYAMGWYRQAPGKERELVAAITYRDGSTYYAHSVKGRFTISRDNSKNTVYLQMNSLKPVDTAVYYCAAEPSWWNVFYPGYNYWGQGTQVTVSS | high polyreactivity
17 | QVQLVESGGGLVQPGGSLRLSCAASGSTLTLYDMGWYRQAPGKEWEFVAAIRSHGVSTYYADSEKGRFTISRDNAKNTVYLQMNSLQPEDTAVYYCSSVYIPGGRYTYFPYKRYDYWGQGTKVTVSS | high polyreactivity
18 | QVQLVESGGGLVQPGGSLSLSCAASGLTFYSYAMGWSRQAPGKERELVAAITSSGSITYYADSVKGRFTISRDNAKNTVYLQMNSLTPEDTAVYYCAARPYRVRGQRFEGNYCGQGTQVTVSS | high polyreactivity
19 | QVQLVESGGGLVQPGVSLRLSCAASGRTSSSYTMGWYRQEPRKECELVAAITSGVRTYYADSVKGRFTISRDNAKNTVYLQMKSLKPEDTAVYYCNARYVPYTYCRKYFKPYDYWGLGTQVTVSS | high polyreactivity
20 | QVQLVESGGGLVQRGCSLRLSCAASGSTFGYYTMGWYRQAPGKERELVSAISYSGGRTFYADSVKGRFTISRDNAKNTVYFQMISLKPEDHAVYYCNTRYIPSYLSHLDYWGQGTQVTVSS | high polyreactivity
21 | QVQLVESGGGLVQSGASLRLSCAASGRISRFNAMGWYRQAPGKERELVAAISSGGSTHYADSVKGRFTISRDNAKITVYLQMNSLKPEDTAVYYCAASVYRWWRLEAYYYWGQGSQVTVSS | high polyreactivity
22 | QVQLVESGGGLVQSGDSLRLSCAASGIILLSYAMGWYIHAPGKERELVAAITSGGGTNYADSVKGRFTISRDNAKNTVYLQMNSLKPEDTAVYYCAVGAYAGLYYYWGQGTQVTVSS | low polyreactivity

Row | Sequence | polyreactivity (PSR sort gate)
23 | QVQLVESGGGLVQSGGILRLSCAATGSIFTSDAMGWYRLAPGKEMELVAAITFSGGDTYYADSVKGRFTISRDNAKNTVYLQMNSLNPEDTAVYYCNADPQQVGAYEYWGQGTQVTLSS | low polyreactivity
24 | QVQLVESGGGLVQSGGSLPLSCAASGRIFSRNAMGWYRQAPGKERELVAAITSGGSTYYADSVKGRFTISRDNAKNTVYLQMNSLKPEDTAVSTVKILRYDYWGQGTQVTVSS | high polyreactivity
25 | QVQLVESGGGLVQSGGSLRISCAASGGIFKYNAMGWYTQAPGKERELVAAINYSGGRTYYADSVKGRFTISRDNAKNTVYLQMNSLKPEDTAVFYCNALTRGHTGQPYTYDYWGQGNQVTVSS | high polyreactivity
26 | QVQLVESGGGLVQSGGSLRLSCAASGFTFASYAMGWYRQAPGKERELVAAIDSDDSTNYADSVKGRFTISRDNAKNTVYLQMNSLKPEDTAVYYCAADEGPYYGIYEYYYWGQGTQVTVSS | high polyreactivity
27 | QVQLVESGGGLVQSGGSLRLSCAASGGTFRSYAMGWYIQAPGKERELVYAIRRSGGSTYYADSVKGRFTISRDNTKNTVYLQMNSLKPEDTAVYYCAARGYNSRRIWKYYYWGQGTQVTVTS | high polyreactivity
28 | QVQLVESGGGLVQSGGSLRLSCAASGITFFEYAMGWYRQAPGKERELVAVITSGGSTNYADSVKGRFTISRDNAKNTVYLQMNSLKPEDTAVYYCNALVVKYRWWYDYYYWGQGTQVTVSS | low polyreactivity
29 | QVQLVESGGGLVQSGGSLRLSCAASGRIIIRYAMGWYIQEPGKERELVAAISKNGGTTYYADSVKGRFTISRDNAKYTVYLQMNSLKPVDTAVYYGAKRLVSRGRTYAYPEYDYWGQGTQVTVSS | high polyreactivity
30 | QVQLVESGGGLVQSGGSLRLSCAASGRTYDSYAMGWYRPAPGKERELVAVISRSGRTYYADSVKGRFTISRDNAKNTVYLQMNSLKPEDTAVYYCAAKWFRTWSGYWGQGSQVTVSS | high polyreactivity
31 | QVQLVESGGGLVQSGGSLRLSCAASGSIFIGNTMGWYRQAPGKERELVATIRRSGSRTYYADSVKGRFTISRDNAKHTVYLQMNSLKPEDTAVYYCAAVRLRTSGYKTIYDYWGQGTQVTVSS | low polyreactivity
32 | QVQLVESGGGLVQSGGSLRLSCAASGSIFYLYAMGWYRQAPGKERELVAAISWTGGSSYYADSVKGRFTISRDNAKNTVYLQMNSLKPEDTAVYYCAADRVLGGPQPGGSSFRGDYWGQGTQVTVSS | low polyreactivity
33 | QVQLVESGGGLVQSGGSLRLSCAASGSILKFNAMVWYRQAPGKERELVAAITRGTNTYYADSVKGRFTISRDNAKNTVYLQMNSLKPEDTAVYYCAARLPYNAIGYYYWGQGTQVTVSS | low polyreactivity
34 | QVQLVESGGGLVQSGGSLRLSCAASGSTFNYYAMGWYRQAPGKERELVAVINKSGGRTNYADSVKGRFTISRDNAKNTVYLQMNSLKPEDTAVYYCNKVTRREGSYGYPSRYEYWGQGTQVTVSS | high polyreactivity
35 | QVQLVESGGGLVQSGGSLRLSCAASGSTFSRYVMGSYRQAPGKERELVAAITNTGSTYYADSVKGRFTISRDNAKNTVYLQMNSLKPEDTAVYYCAATQYRSDGWRYDYWGQGTQVTVSS | high polyreactivity
36 | QVQLVESGGGLVQSGGSLRLSCAASGSTLIGNAMGWYRQAPGKERELVAAISSGGRTYYADSVKGRFTISRDNAKNTVYLQMNSLKPEDTAVYYCAADTVGTNVVSPELDYWGQGTQVTVSS | low polyreactivity
37 | QVQLVESGGGLVQSGGSLRLSCAASGYIFGYYAMGWYRQAPGKERELVAAITGTDDTYYADSVKGRFTISRDNAKNTVYLQMNSLKPEDTAVYYCAAYSWWNEYDYWGQGTQVTVSS | high polyreactivity
38 | QVQLVESGGGLVQSGGSLRLSCAASGYIIPRYAMGWYIHAPGKERELVAGITTGVRTNYADSVKGRFTISRDNAKNSVYLQMNSLKPGDTAVYYCNARYFRYRYNRYDYWGQGTQVTVSS | high polyreactivity
39 | QVQLVESGGGLVQSGGSLRLSCAASGYIVRNAMGWYRQAPVKERELVAAITWSGGSTYYADSVKGRFTISRDNAKNTVYLQMNSLKPEDTAVYYCNARRNVRQTFGYEYWGQGTQVTVSS | high polyreactivity
40 | QVQLVESGGGLVQSGGSLRLSSASSGRTFSGYVMGWYRQAPGKEREFVAVISRGGSTYYADSVKGRFTISRDNAKNTVYLQMNSLKPEDTAVYYCAGRLTYTGGQGAYDYWGQGTQVTVSS | high polyreactivity
41 | QVQLVESGGGLVQSGGSLRLTCAASGFIFHKYVMGWYSPAPGKEREMVAAISRSGASTYYADSVKGRFTISRDNAKNTVYLQMNSLKPEDTAVYYCAKDYQTYSGSSDFDYWGQGSQVTVSS | high polyreactivity
42 | QVQLVESGGGLVQSGGSLRLTCAASGSILWYNGMGWYSQAPGKERELVAAITSGGSTNYADSVKGRFTISRDNAKNTFYLHMNSLKPEDTEVYYCKARPYWFGSYGYWGQGTKVTVSS | low polyreactivity
43 | QVQLVESGGGLVQSRGSLSLICAASGRTYRTYTMGWYRQSPGKERQFVAAIDRTGGSTYYADSVKGRFTISRDNAKNTVYLQMNSLKPEDTAVYYCAATASYIYWGKIYGYDYWGQGTQVTVSS | high polyreactivity
